Experimental data as given in publication PMC2853134.

T1: TFIIB (UniProt P29055 1-345)
T1 sequence: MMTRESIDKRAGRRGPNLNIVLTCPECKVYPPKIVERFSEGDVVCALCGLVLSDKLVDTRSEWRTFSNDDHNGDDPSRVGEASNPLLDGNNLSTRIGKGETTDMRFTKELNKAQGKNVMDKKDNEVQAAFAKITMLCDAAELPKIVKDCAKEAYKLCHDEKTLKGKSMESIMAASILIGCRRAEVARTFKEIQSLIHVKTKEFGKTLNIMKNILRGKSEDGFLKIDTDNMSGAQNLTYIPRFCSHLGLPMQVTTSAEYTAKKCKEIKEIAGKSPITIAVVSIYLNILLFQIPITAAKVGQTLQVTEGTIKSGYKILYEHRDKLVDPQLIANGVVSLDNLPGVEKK

B1: B4-Del3 (structured_RNA)
RNA: GGGAGAAUUCAACUGCCAUCUAGGCAAAGAGCUAAUGUAGGAUGCUGGGGUAGUCCAGCCCUAGAAUAAGCGCUAGUACUACAAGCU
B2: B4-Del5 (structured_RNA)
RNA: GGGAGCUAAUGUAGGAUGCUGGGGUAGUCCAGCCCUAGAAUAAGCGCUAGUACUACAAGCUUCUGGAGCUCGGU
B3: MiniB4 (structured_RNA)
RNA: GGGAGCUAAUGUAGGAUGCUGGGGUAGUCCAGCCCUAGAAUAAGCGCUAGUACUACAAGCU

Target: T1, TFIIB
Test: EMSA

Binding result, binds:
B1, B2, B3
